According to paper PMC6307885, “Spatiotemporal control of axillary meristem formation by interacting transcriptional regulators” (Development (Cambridge, England), 2018):
One block for each binder: values may come before it.

Assays:
[1] = biological target: T1, BD-REV (full-length REV fused to the binding domain of GAL4) (Arabidopsis thaliana, UniProt Q9SE43 1-842); test: cell-based or functional assay
T1 sequence (looked up): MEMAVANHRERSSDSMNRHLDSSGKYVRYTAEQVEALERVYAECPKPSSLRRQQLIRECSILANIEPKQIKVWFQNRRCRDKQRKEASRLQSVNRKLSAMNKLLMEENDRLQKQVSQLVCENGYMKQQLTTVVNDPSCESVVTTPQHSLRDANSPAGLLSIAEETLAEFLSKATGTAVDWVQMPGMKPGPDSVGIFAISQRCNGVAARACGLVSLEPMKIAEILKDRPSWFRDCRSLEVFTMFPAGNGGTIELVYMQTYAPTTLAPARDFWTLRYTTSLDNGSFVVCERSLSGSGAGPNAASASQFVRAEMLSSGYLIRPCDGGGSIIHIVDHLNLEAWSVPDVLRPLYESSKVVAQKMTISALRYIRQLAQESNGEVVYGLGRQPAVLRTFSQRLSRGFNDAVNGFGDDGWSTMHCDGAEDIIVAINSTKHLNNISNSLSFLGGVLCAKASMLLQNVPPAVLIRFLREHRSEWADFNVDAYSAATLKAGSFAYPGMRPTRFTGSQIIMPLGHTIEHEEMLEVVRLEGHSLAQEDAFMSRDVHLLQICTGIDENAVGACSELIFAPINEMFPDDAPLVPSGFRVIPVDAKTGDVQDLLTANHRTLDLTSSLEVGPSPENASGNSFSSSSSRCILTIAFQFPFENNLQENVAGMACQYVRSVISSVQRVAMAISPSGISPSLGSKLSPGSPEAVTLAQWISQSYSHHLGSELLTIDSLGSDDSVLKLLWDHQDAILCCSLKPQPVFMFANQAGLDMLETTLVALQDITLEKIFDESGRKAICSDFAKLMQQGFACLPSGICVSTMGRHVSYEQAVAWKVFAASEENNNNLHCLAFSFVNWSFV

[2] = biological target: T2, DRN-GFP (DORNRÖSCHEN fused to GFP, from pDRN::DRN-GFP plants) (Arabidopsis thaliana, UniProt Q9SAD4 1-328); test: co-IP; anti-GFP on Protein A sepharose beads, blot probed with anti-MYC; extracts of young (younger than P10) and mature (older than P10) leaf axil-enriched tissues of pDRN::DRN-GFP p35S::REV-MYC plants, equal amounts of DRN-GFP; 20 mM HEPES pH 7.5, 40 mM KCl, 1 mM EDTA, 1% Triton X-100; conditions: partners not purified
T2 construct: DORNRÖSCHEN (DRN/ESR1), AP2 family transcription factor, Arabidopsis thaliana, At1g12980; Cole et al., 2009; also called ESR1; ENHANCER OF SHOOT …ON 1; source: Arabidopsis pDRN::DRN-GFP p35S::REV-MYC plants, extract of leaf axil-enriched shoot tissues
T2 sequence (Q9SAD4 whole entry, the tested form may be a part): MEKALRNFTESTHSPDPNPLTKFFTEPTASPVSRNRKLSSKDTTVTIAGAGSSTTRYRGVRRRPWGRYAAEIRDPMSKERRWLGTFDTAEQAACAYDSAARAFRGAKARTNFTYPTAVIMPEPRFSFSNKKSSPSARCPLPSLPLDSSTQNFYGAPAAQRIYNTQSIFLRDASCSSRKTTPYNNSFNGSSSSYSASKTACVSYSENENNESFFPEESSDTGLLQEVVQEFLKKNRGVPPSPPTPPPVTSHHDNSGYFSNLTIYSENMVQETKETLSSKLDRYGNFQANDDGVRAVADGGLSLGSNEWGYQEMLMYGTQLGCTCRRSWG

- pSTM::Luc reporter (LUC/GUS) in Arabidopsis protoplasts; co-transformation of p35S::DRNL and p35S::REV against transformation with one alone [1]: ~2.5 fold
B1: AD-DRNL (full-length DRNL fused to the activation domain of GAL4) (natural protein)
chain: not shown

- fold stronger co-precipitated REV-MYC band, old against young leaf axil-enriched tissues [2]: ~3 fold
B2: REV-MYC (REVOLUTA with MYC tag, from p35S::REV-MYC plants) (natural protein, Arabidopsis thaliana, UniProt Q9SE43 1-842, looked up)
chain: MEMAVANHRERSSDSMNRHLDSSGKYVRYTAEQVEALERVYAECPKPSSLRRQQLIRECSILANIEPKQIKVWFQNRRCRDKQRKEASRLQSVNRKLSAMNKLLMEENDRLQKQVSQLVCENGYMKQQLTTVVNDPSCESVVTTPQHSLRDANSPAGLLSIAEETLAEFLSKATGTAVDWVQMPGMKPGPDSVGIFAISQRCNGVAARACGLVSLEPMKIAEILKDRPSWFRDCRSLEVFTMFPAGNGGTIELVYMQTYAPTTLAPARDFWTLRYTTSLDNGSFVVCERSLSGSGAGPNAASASQFVRAEMLSSGYLIRPCDGGGSIIHIVDHLNLEAWSVPDVLRPLYESSKVVAQKMTISALRYIRQLAQESNGEVVYGLGRQPAVLRTFSQRLSRGFNDAVNGFGDDGWSTMHCDGAEDIIVAINSTKHLNNISNSLSFLGGVLCAKASMLLQNVPPAVLIRFLREHRSEWADFNVDAYSAATLKAGSFAYPGMRPTRFTGSQIIMPLGHTIEHEEMLEVVRLEGHSLAQEDAFMSRDVHLLQICTGIDENAVGACSELIFAPINEMFPDDAPLVPSGFRVIPVDAKTGDVQDLLTANHRTLDLTSSLEVGPSPENASGNSFSSSSSRCILTIAFQFPFENNLQENVAGMACQYVRSVISSVQRVAMAISPSGISPSLGSKLSPGSPEAVTLAQWISQSYSHHLGSELLTIDSLGSDDSVLKLLWDHQDAILCCSLKPQPVFMFANQAGLDMLETTLVALQDITLEKIFDESGRKAICSDFAKLMQQGFACLPSGICVSTMGRHVSYEQAVAWKVFAASEENNNNLHCLAFSFVNWSFV
notes: REVOLUTA (REV), class III homeodomain-leucine zipper transcription factor, Arabidopsis thaliana, At5g60690; source: Arabidopsis pDRN::DRN-GFP p35S::REV-MYC plants, extract of leaf axil-enriched shoot tissues

- pSTM::Luc reporter (LUC/GUS) in Arabidopsis protoplasts; co-transformation of p35S::DRN and p35S::REV against transformation with one alone [1]: ~2.5 fold
B3: AD-DRN (full-length DRN fused to the activation domain of GAL4) (natural protein)
chain: not shown
